According to patent US20200383917A1 (NORTHWESTERN UNIVERSITY, published 2020):
Ends that are not written are not given here.

Biological target: T1, CD11c on the surface of mouse bone marrow-derived dendritic cells (BMDCs) (mouse, UniProt Q9QXH4 20-1169)
T1 sequence (looked up): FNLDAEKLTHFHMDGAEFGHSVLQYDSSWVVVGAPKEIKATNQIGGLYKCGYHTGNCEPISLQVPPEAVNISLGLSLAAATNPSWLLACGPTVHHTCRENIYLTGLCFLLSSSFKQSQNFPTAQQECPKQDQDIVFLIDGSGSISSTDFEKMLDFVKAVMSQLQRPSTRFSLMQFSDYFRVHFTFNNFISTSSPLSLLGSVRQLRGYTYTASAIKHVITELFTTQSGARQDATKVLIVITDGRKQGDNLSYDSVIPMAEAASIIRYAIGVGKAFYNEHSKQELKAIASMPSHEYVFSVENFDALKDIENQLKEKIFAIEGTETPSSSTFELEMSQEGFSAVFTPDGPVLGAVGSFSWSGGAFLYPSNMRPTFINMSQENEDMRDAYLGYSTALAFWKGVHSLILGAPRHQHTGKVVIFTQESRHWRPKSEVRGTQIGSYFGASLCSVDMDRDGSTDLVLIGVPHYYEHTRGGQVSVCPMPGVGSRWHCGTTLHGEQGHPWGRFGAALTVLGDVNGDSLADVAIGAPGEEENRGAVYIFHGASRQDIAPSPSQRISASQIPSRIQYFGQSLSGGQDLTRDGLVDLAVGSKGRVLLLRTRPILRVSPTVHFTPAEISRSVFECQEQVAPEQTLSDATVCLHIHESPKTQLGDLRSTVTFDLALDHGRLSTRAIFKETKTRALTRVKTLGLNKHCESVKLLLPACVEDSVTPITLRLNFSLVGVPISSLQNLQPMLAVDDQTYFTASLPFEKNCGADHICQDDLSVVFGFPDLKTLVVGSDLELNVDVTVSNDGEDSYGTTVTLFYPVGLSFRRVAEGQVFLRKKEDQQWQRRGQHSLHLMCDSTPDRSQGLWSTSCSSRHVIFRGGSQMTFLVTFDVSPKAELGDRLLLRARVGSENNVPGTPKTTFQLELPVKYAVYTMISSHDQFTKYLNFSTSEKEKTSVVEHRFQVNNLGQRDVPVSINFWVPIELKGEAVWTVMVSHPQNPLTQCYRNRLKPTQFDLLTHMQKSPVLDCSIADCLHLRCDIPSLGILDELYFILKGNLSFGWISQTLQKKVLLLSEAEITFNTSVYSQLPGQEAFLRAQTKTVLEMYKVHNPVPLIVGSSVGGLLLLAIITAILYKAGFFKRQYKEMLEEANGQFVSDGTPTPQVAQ
Assay: cell-based or functional assay

- cellular uptake by BMDCs (flow cytometry, nile red-loaded PS, 1 h incubation): > 3 fold
Binder: GGVTLTYQFAAGPRDK (not fully specified (N-terminus); also: displayed on PEG-bl-PPS polymersome) [P-D2-PEG5-PS (PEG-bl-PPS polymersome displaying the P-D2-PEG5-Lys-PA targeting peptide construct)]
